The record followed here is patent US20250250357A1 (NANJING ZAIMING PHARMACEUTICAL, published 2025).

A word on the EC50: it is the concentration giving half of the maximal effect.

For experiment [1], the target named is T1, human MSLN protein endogenously expressed on OVCAR3 tumor cells (human, UniProt Q13421 296-598).
T1 construct: whole, on cells; Endogenous target on OVCAR3 cells; kept apart from the recombinant full-length construct; also called mesothelin
As to the kind of experiment: FACS on OVCAR3 cells.

The target of experiment [2] is T2, human MSLN full-length protein (NCBI: AAH09272.1) expressed on HEK293T-hMSLN-B8 cells (human, UniProt Q13421 296-598).
T2 construct: Whole encoded precursor
The experiment can be described thus: FACS on HEK293T-hMSLN-B8 cells.

For experiment [3], the target named is T3, monkey MSLN full-length protein (NCBI: XP_028696439.1) expressed on HEK293T-monkey MSLN cells (monkey).
T3 construct: Whole encoded precursor
T3 chain: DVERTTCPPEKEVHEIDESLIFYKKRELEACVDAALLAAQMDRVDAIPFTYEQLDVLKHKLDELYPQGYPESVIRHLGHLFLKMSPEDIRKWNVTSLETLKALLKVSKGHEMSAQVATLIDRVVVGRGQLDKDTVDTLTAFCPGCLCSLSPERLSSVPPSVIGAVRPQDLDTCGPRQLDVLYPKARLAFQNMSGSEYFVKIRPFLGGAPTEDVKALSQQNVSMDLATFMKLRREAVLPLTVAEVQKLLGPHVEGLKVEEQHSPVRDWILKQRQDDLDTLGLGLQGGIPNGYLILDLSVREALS
The experiment can be described thus: FACS on HEK293T-monkey MSLN cells.

In experiment [4] the target is T4, human MSLN-R3 protein (Met487-Ser606 of NCBI AAH09272.1) expressed on HEK293T-hMSLN-R3 cells (human, UniProt Q13421 487-606).
T4 construct: also called Region3
As to the kind of experiment: FACS on HEK293T-hMSLN-R3 cells.

T4 sequence (Q13421 495-614): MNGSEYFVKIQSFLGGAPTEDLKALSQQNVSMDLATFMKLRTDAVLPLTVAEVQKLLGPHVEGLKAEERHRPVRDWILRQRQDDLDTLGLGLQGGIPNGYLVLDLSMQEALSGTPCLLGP
T2 sequence (Q13421 other isoform, or with tags, fused parts or gaps limits assumed): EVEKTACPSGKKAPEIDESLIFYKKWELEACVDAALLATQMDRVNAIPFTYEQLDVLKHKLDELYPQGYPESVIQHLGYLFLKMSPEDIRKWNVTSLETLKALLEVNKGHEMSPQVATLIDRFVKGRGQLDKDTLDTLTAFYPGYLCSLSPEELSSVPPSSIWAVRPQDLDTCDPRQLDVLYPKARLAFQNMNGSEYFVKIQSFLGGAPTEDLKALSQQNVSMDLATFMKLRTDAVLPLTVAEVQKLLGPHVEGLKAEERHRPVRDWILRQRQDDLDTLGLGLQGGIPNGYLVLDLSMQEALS
T1 sequence (Q13421 other isoform, or with tags, fused parts or gaps): as the sequence (Q13421 other isoform, or with tags, fused parts or gaps limits assumed) above, with P14R counted along it

B1: S009-F3.23.1 (antibody, human IgG1, kappa, V domains shown)
VH: QVQLQQSGADLVRPGASVTLSCKASGYTFTDYEMHWVKQTPVHGLEWIGAIDPETGDTVYNQNFKGKAILTADKSSSTAYMELRSLTSEDSAVYYCTRYGYDWGWGQGTTLTVSS
VL: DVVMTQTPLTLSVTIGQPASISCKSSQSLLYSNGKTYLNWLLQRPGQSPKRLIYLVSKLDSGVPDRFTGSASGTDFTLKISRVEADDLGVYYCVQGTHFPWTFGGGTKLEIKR
notes: human-murine chimeric antibody, human IgG1/kappa constant regions
With B1, the “Maximum mean fluorescence intensity” value in experiment [1] stood at 288; in experiment [2] it was 26400; in experiment [3] it was 88; in experiment [4] it was 4240. The EC50 in experiment [2] was 33.7 nM; in experiment [4], 0.84 nM. For the same molecule, in experiment [3], the binding result was “no binding”.

B2: S009-F3.45.21 (antibody, human IgG1, kappa, V domains shown)
VH: DVQLQESGPGLVKPSQSLSLTCSVTGDSITSGYYWNWIRQFPGNKLEWMGFIRFDGTNNYNPSLKNRISITRDTSKNQFFLKLNSVTTEDTATYYCAREGSYAPAWFAYWGQGTLVTVSA
VL: QIVLTQSPAIMSASPGEKVTMTCSASSSLSYMYWYQQKPGSSPRLLIYDTSNLASGVPVRFSGSGSGTSYSLTISRMEAEDAATYYCQQWSSYPPTFGGGTKLEIKR
notes: as for B1
Consider B2, for which the EC50 in experiment [1] turned out to be 5.61 nM; in experiment [2], 1.41 nM; in experiment [3], 0.56 nM. In addition, the “Maximum mean fluorescence intensity” value in experiment [1] is 9710; in experiment [2], 97600; in experiment [3] it was 41100; in experiment [4], 81. Further, the binding result in experiment [4] is recorded as “no binding”.

B3: S009-F3.38.10 (antibody, human IgG1, kappa, V domains shown)
VH: EVQLQQSGPVLVKPGASVKMSCEASGYIFTDYYMNWVKKSHGKSLEWIGVINPKNGVISHNQKFKGKATLTVDKSSNTAYMELSSLTSEDSAVYYCANYGSRFYAMDYWGQGTSVTVSS
VL: DVVMTQTPLSLPVSLGDQASISCRSSQSLIHSDGNTYLQWYLQKSGQSPKLLIYKVSNRFSGVPDRFSGSGSGTDFTLKISRVETEDLGVYFCSQTTHVPFTFGSGTKLEIKR
notes: as for B1
For B3, the “Maximum mean fluorescence intensity” value in experiment [1] turned out to be 2620; in experiment [2], 80600; in experiment [3], 22300; in experiment [4], 6770. Moreover, the values for the EC50 in experiment [2], in experiment [3] and in experiment [4] were 6.84 nM, 4.63 nM and 3.41 nM, respectively.

B4: S009-F3.7.3 (antibody, human IgG1, kappa, V domains shown)
VH: EVNFEESGGGLVQPGGSMKLSCVASGFTFSNYWMNWVRQSPEKGLEWVAQIRLKSDNYATHYAESVKGRFTISRDDFKSSVYLQMNNLRAEDTGIYYCTVGTGGYWGQGTTLTVSS
VL: DIVLTQSPASLAMSLGKRATISCRASESVSIVGTNVIHWFQQKPGQPPKLLIYHASNLETGVPARFSGSGSGTDFTLTIDPVEEDDVAIYHCLQSRKIPWTFGGGTKLEIKR
notes: as for B1
As for B4, the EC50 in experiment [1] turned out to be 1.94 nM; in experiment [2] it was 2.25 nM; in experiment [4], 0.72 nM. Besides, the “Maximum mean fluorescence intensity” value is 3700 in experiment [1], 88800 in experiment [2], 7100 in experiment [3] and 7920 in experiment [4].

B5: S009-F3.16.1 (antibody, human IgG1, kappa, V domains shown)
VH: EVKFEESGGGLVQPGGSMKLSCVASGFTFSNYWMNWVRQSPEKGLEWVAQIRLKSDNYATHYAESVKGRFSISRDDSKSSVYLQMNNLRAEDTGIYYCSVGTGGYWGQGTTLTVSS
VL: DIVLTQSPASLALSPGKRATISCRASESVSIIGTDVIHWFQQKPGQPPKLLIYHASNLETGVPARFSGSGSRTDFTLTIDPVEEDDVAIYYCLQSRKIPWTFGGGTKLEIKR
notes: as for B1
With B5, the EC50 turned out to be 1.61 nM in experiment [1], 1.46 nM in experiment [2], 1.4 nM in experiment [3] and 0.43 nM in experiment [4]. Also, the “Maximum mean fluorescence intensity” value in experiment [1] is 4190; in experiment [2] it was 89800; in experiment [3], 24800; in experiment [4], 8060.
